Drawing on patent US20220356217A1, this text covers IC50 for one substance.

The assay deals with human integrin αIIbβ3 on cells (K562 cells stably expressing αIIbβ3; human platelets) (human) (UniProt P08514). The assay can be described thus: FACS; displacement of Alexa647-labeled soluble fibrinogen from activated αIIbβ3-K562 cells.

In the case of eptifibatide (peptide), the IC50 turned out to be 73.2 nM.
